Laboratory results taken from patent publication EP4786492A1.
Residue numbers refer to the chain shown, from its start.

B1: Hab009VL3aVH1-hFc (Fc fusion, part only; not given: Linker and human IgG1 Fc, not shown: a dimerising Fc or GST)
chain, part: DIVMTQSPLSLPVTPGEPASISCRASQTISDYLHWYLQKSHQSPQLLIKYASQSISGVPDRFSGSGSGTDFTLKISRVEAEDVGVYYCQQGHSFPLTFGQGTKLEIKEVQLVQSGAEVKKPGASVKVSCKASGYTFTSYWMHWVRQAPGQRLEWMGTIYPGNSDTRYNQKFKDRVTITADTSASTAYMELSSLRSEDTAVYYCTRSYDYGDLDYWGQGTTVTVSS
B2: Hab008L1H2a-hFc (scFv, part only; not given: VL-VH linker and human IgG1 Fc, V domains shown, not shown: another chain or arm of the molecule; a dimerising Fc or GST; small tags and cut ends)
VL: DIQMTQSPSSLSASVGDRVTITCKASQNVGTAVAWYQQKPGKSPKLLIFSASIRYTGVPSRFSGSGSGTDFTLTISSLQPEDFATYYCQQYSSSPYTFGGGTKVEIK
VH: EVQLVQSGAEVKKPGASVKVSCKASGYTFTDYYMNWVRQAPGQRLEWMGIINPYNSGTSYNQKFRGRVTLTVDKSASTAYMELSSLRSEDTAVYYCSRYDYDYDVEGAMDYWGQGTTVTVSS
B3: Hab008L1H5-hFc (scFv, part only; not given: VL-VH linker and human IgG1 Fc, V domains shown, not shown: another chain or arm of the molecule; a dimerising Fc or GST; small tags and cut ends)
VL: B2 VL
VH: B2 VH with Q39R, S56G, L70I

target: human DLL3 protein expressed on CHO-K1 recombinant cells (human DLL3 extracellular segment fused to EpCAM transmembrane and intracellular regions) (human) (UniProt Q9NYJ7); test: FACS, CHO-K1 hDLL3 cells, 100 nM antibody
Sequence (Q9NYJ7 other isoform, or with tags, fused parts or gaps limits assumed): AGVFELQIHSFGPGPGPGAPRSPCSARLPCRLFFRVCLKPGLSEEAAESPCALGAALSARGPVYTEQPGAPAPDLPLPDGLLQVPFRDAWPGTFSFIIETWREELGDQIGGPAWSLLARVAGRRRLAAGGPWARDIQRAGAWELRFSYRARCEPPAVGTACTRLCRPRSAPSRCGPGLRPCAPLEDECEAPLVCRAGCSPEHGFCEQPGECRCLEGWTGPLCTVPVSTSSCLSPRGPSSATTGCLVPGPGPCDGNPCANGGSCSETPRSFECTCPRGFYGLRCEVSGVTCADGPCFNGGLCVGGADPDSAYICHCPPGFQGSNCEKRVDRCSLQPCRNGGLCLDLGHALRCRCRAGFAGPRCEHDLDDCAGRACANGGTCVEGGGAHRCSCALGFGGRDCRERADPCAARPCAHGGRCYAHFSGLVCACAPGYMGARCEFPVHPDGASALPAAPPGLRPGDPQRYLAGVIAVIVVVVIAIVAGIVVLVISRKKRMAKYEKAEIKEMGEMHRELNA

Binder	MFI
B1	13400 MFI
B2	7690 MFI
B3	8400 MFI

target: monkey DLL3 on CHO-K1-cyno DLL3 cells (cynomolgus monkey); test: FACS, CHO-K1-cyno DLL3 cells, 0.00128 nM antibody
Sequence (chain, as listed by the source limits assumed): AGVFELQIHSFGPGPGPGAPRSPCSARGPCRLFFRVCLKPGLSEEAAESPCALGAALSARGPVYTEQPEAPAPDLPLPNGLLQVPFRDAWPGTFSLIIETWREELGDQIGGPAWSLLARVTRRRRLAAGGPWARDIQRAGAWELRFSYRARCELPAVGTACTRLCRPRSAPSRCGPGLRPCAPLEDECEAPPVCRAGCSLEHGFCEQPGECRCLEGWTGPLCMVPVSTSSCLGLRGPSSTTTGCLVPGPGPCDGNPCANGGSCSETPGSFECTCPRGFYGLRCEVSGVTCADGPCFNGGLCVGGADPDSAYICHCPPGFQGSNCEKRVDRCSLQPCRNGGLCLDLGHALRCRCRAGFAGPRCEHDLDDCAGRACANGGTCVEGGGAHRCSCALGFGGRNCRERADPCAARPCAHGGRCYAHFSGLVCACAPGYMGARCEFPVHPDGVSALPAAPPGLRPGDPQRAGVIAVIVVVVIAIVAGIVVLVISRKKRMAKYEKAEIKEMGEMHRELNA

Binder	MFI
B2	129 MFI
B3	116 MFI

target: monkey DLL3 on CHO-K1-cyno DLL3 cells (cynomolgus monkey); test: FACS, CHO-K1-cyno DLL3 cells, 0.8 nM antibody

Binder	MFI
B2	7010 MFI
B3	2940 MFI

target: human DLL3 protein expressed on CHO-K1 recombinant cells (human DLL3 extracellular segment fused to EpCAM transmembrane and intracellular regions) (human) (UniProt Q9NYJ7); test: FACS, CHO-K1 hDLL3 cells, 0.8 nM antibody

Binder	MFI
B1	11800 MFI
B2	3700 MFI
B3	2170 MFI

target: monkey DLL3 on CHO-K1-cyno DLL3 cells (cynomolgus monkey); test: FACS, CHO-K1-cyno DLL3 cells, 0.0064 nM antibody

Binder	MFI
B2	231 MFI
B3	159 MFI

target: human DLL3 protein expressed on CHO-K1 recombinant cells (human DLL3 extracellular segment fused to EpCAM transmembrane and intracellular regions) (human) (UniProt Q9NYJ7); test: FACS, CHO-K1 hDLL3 cells, 0.16 nM antibody

Binder	MFI
B1	5730 MFI
B2	866 MFI
B3	521 MFI

target: human DLL3 protein expressed on CHO-K1 recombinant cells (human DLL3 extracellular segment fused to EpCAM transmembrane and intracellular regions) (human) (UniProt Q9NYJ7); test: FACS, CHO-K1 hDLL3 cells, 20 nM antibody

Binder	MFI
B1	13300 MFI
B2	7660 MFI
B3	7750 MFI

target: monkey DLL3 on CHO-K1-cyno DLL3 cells (cynomolgus monkey); test: FACS, CHO-K1-cyno DLL3 cells, 0.032 nM antibody

Binder	MFI
B2	511 MFI
B3	286 MFI

target: DLL3 endogenously expressed on NCI-H82 cells (UniProt Q9NYJ7); test: FACS on NCI-H82 cells; antibody 0.00128 nM
Sequence (Q9NYJ7 27-618): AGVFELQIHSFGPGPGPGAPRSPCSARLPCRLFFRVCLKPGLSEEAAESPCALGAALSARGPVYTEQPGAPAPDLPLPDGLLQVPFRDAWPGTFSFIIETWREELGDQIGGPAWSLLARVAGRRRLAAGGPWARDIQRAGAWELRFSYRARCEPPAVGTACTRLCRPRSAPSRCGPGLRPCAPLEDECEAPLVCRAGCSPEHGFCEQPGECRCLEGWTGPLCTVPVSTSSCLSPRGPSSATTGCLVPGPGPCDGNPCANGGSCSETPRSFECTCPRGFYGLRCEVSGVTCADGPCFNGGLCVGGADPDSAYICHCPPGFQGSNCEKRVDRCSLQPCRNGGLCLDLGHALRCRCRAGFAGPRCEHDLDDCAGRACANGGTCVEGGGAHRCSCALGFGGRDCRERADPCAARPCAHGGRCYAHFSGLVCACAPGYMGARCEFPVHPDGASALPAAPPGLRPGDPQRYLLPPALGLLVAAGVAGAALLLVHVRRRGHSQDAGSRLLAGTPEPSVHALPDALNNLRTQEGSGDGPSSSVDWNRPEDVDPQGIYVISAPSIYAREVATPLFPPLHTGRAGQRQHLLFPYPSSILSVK

Binder	MFI
B2	93
B3	102

target: monkey DLL3 on CHO-K1-cyno DLL3 cells (cynomolgus monkey); test: FACS, CHO-K1-cyno DLL3 cells, 100 nM antibody

Binder	MFI
B2	18600 MFI
B3	18400 MFI

target: monkey DLL3 on CHO-K1-cyno DLL3 cells (cynomolgus monkey); test: FACS, CHO-K1-cyno DLL3 cells, 4 nM antibody

Binder	MFI
B2	17600 MFI
B3	12100 MFI

target: DLL3 endogenously expressed on NCI-H82 cells (UniProt Q9NYJ7); test: FACS on NCI-H82 cells; antibody 0.8 nM

Binder	MFI
B2	312
B3	245

target: DLL3 endogenously expressed on NCI-H82 cells (UniProt Q9NYJ7); test: FACS on NCI-H82 cells; antibody 20 nM

Binder	MFI
B2	503
B3	1020

target: DLL3 endogenously expressed on NCI-H82 cells (UniProt Q9NYJ7); test: FACS on NCI-H82 cells; antibody 0.0064 nM

Binder	MFI
B2	106
B3	106

target: DLL3 endogenously expressed on NCI-H82 cells (UniProt Q9NYJ7); test: FACS on NCI-H82 cells; antibody 0.032 nM

Binder	MFI
B2	134
B3	114

target: monkey DLL3 on CHO-K1-cyno DLL3 cells (cynomolgus monkey); test: FACS, CHO-K1-cyno DLL3 cells, 20 nM antibody

Binder	MFI
B2	19500 MFI
B3	18400 MFI

target: human DLL3 protein expressed on CHO-K1 recombinant cells (human DLL3 extracellular segment fused to EpCAM transmembrane and intracellular regions) (human) (UniProt Q9NYJ7); test: FACS, CHO-K1 hDLL3 cells, 0.00128 nM antibody

Binder	MFI
B1	204 MFI
B2	109 MFI
B3	103 MFI

target: human DLL3 protein (extracellular segment, His tag) (human) (UniProt Q9NYJ7); test: SPR (Biacore 8K), antibody captured on Protein A chip, DLL3 antigen in solution, 1:1 Langmuir fit
Sequence (Q9NYJ7 27-492): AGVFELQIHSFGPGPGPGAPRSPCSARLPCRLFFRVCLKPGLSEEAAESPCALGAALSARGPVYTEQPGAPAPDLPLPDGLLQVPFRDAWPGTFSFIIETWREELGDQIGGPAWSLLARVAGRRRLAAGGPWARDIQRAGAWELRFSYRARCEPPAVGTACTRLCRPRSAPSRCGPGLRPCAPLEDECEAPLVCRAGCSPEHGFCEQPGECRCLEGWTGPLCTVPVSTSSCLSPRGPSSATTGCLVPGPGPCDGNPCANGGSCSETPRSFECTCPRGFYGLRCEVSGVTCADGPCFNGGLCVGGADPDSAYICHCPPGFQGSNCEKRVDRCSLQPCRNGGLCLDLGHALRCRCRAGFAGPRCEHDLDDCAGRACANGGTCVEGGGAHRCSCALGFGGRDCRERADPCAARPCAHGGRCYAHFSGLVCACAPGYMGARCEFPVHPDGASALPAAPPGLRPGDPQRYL

Binder	Kd	koff	kon
B2	0.535 nM	0.000324 s⁻¹	606000 M⁻¹ s⁻¹

target: DLL3 endogenously expressed on NCI-H82 cells (UniProt Q9NYJ7); test: FACS on NCI-H82 cells; antibody 4 nM

Binder	MFI
B2	440
B3	539

target: human DLL3 protein expressed on CHO-K1 recombinant cells (human DLL3 extracellular segment fused to EpCAM transmembrane and intracellular regions) (human) (UniProt Q9NYJ7); test: FACS, CHO-K1 hDLL3 cells, 0.032 nM antibody

Binder	MFI
B1	1500 MFI
B2	316 MFI
B3	221 MFI

target: monkey DLL3 on CHO-K1-cyno DLL3 cells (cynomolgus monkey); test: FACS, CHO-K1-cyno DLL3 cells, 0.16 nM antibody

Binder	MFI
B2	1540 MFI
B3	711 MFI

target: human DLL1 protein (Acro, Cat. No. DL1-H52H8) (human) (UniProt O00548); test: ELISA, coated hDLL1; maximum over 0.1, 1, 10, 100 nM antibody
Sequence (O00548 18-540 limits assumed): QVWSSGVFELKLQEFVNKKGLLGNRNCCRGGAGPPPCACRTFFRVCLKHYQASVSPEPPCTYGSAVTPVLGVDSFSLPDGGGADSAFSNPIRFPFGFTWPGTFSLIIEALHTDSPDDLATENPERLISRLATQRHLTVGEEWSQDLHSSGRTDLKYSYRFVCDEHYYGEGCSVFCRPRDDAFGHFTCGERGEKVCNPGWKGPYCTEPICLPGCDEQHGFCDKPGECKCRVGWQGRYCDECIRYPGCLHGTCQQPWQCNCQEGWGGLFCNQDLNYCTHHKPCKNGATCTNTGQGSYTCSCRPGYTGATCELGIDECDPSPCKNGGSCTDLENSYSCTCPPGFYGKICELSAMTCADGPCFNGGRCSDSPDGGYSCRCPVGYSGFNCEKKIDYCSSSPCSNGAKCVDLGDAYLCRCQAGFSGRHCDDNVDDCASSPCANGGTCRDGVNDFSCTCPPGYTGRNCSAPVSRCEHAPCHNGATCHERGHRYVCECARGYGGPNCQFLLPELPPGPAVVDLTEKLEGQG

Binder	Emax of OD450 nm binding value
B2	0.06 OD450 nm
B3	0.24 OD450 nm

target: DLL3 endogenously expressed on NCI-H82 cells (UniProt Q9NYJ7); test: FACS on NCI-H82 cells; antibody 0.16 nM

Binder	MFI
B2	194
B3	149

target: human DLL4 protein (Acro, Cat. No. DL4-H5227) (human) (UniProt Q9NR61); test: ELISA, coated hDLL4; maximum over 0.1, 1, 10, 100 nM antibody
Sequence (Q9NR61 27-524 limits assumed): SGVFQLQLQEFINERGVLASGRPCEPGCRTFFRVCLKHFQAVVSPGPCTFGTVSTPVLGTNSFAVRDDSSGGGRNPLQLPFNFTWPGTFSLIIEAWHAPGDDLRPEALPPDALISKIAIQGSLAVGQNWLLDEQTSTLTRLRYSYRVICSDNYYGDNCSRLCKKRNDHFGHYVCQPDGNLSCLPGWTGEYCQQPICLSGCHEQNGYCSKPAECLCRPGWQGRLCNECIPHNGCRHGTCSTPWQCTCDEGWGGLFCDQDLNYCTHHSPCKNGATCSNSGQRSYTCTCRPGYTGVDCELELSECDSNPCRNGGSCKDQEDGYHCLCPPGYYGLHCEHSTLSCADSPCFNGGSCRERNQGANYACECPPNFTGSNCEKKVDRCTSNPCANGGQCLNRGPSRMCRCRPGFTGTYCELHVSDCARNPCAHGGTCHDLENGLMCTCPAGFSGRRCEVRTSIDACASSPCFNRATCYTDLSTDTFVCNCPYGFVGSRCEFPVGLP

Binder	Emax of OD450 nm binding value
B2	0.07 OD450 nm
B3	0.69 OD450 nm

target: DLL3 endogenously expressed on NCI-H82 cells (UniProt Q9NYJ7); test: FACS on NCI-H82 cells; antibody 100 nM

Binder	MFI
B2	617
B3	1860

target: human DLL3 protein expressed on CHO-K1 recombinant cells (human DLL3 extracellular segment fused to EpCAM transmembrane and intracellular regions) (human) (UniProt Q9NYJ7); test: FACS, CHO-K1 hDLL3 cells, 0.0064 nM antibody

Binder	MFI
B1	458 MFI
B2	148 MFI
B3	127 MFI

target: human DLL3 protein expressed on CHO-K1 recombinant cells (human DLL3 extracellular segment fused to EpCAM transmembrane and intracellular regions) (human) (UniProt Q9NYJ7); test: FACS, CHO-K1 hDLL3 cells, 4 nM antibody

Binder	MFI
B1	12800 MFI
B2	7440 MFI
B3	6530 MFI

target: human delta-like ligand 3 (DLL3) on SHP77 cells (human) (UniProt Q9NYJ7); test: FACS on SHP77 cells
Sequence (Q9NYJ7 27-618, stated change not applied): as the sequence (Q9NYJ7 27-618) above

Binder	MFI at 0.00128 nM	MFI at 0.0064 nM	MFI at 0.032 nM	MFI at 0.16 nM	MFI at 0.8 nM	MFI at 4 nM	MFI at 20 nM	MFI at 100 nM
B1	105 MFI	128 MFI	196 MFI	396 MFI	673 MFI	769 MFI	852 MFI	954 MFI
B2	119 MFI	121 MFI	126 MFI	144 MFI	187 MFI	297 MFI	532 MFI	758 MFI
B3	121 MFI	120 MFI	123 MFI	139 MFI	186 MFI	333 MFI	793 MFI	1530 MFI
